Measurements as given in paper PMC11022716.

B1: mouse FcγRI (receptor)
chain: EVVNATKAVITLQPPWVSIFQKENVTLWCEGPHLPGDSSTQWFINGTAVQISTPSYSIPEASFQDSGEYRCQIGSSMPSDPVQLQIHNDWLLLQASRRVLTEGEPLALRCHGWKNKLVYNVVFYRNGKSFQFSSDSEVAILKTNLSHSGIYHCSGTGRHRYTSAGVSITVKELFTTPVLRASVSSPFPEGSLVTLNCETNLLLQRPGLQLHFSFYVGSKILEYRNTSSEYHIARAEREDAGFYWCEVATEDSSVLKRSPELELQVLGPQSSAP
B2: mouse FcγRIV (receptor)
chain: GLQKAVVNLDPKWVRVLEEDSVTLRCQGTFSPEDNSIKWFHNESLIPHQDANYVIQSARVKDSGMYRCQTALSTISDPVQLEVHMGWLLLQTTKWLFQEGDPIHLRCHSWQNRPVRKVTYLQNGKGKKYFHENSELLIPKATHNDSGSYFCRGLIGHNNKSSASFRISLGDPGSPSMFPPWHQ
B3: mouse FcγRII (receptor)
chain: THDLPKAVVKLEPPWIQVLKEDTVTLTCEGTHNPGNSSTQWFHNGRSIRSQVQASYTFKATVNDSGEYRCQMEQTRLSDPVDLGVISDWLLLQTPQLVFLEGETITLRCHSWRNKLLNRISFFHNEKSVRYHHYSSNFSIPKANHSHSGDYYCKGSLGRTLHQSKPVTITVQGPKSSRSLP
B4: mouse FcγRIII (receptor)
chain: ALPKAVVKLDPPWIQVLKEDMVTLMCEGTHNPGNSSTQWFHNGRSIRSQVQASYTFKATVNDSGEYRCQMEQTRLSDPVDLGVISDWLLLQTPQRVFLEGETITLRCHSWRNKLLNRISFFHNEKSVRYHHYKSNFSIPKANHSHSGDYYCKGSLGSTQHQSKPVTITVQDPATTSSISLVWYHT

These binders were tested against hu1‐23 (human) (assay: SPR; BIAcore 8K, 25 °C, HBS‐EP+ buffer; antibodies with hIgG‐Fc immobilised on a Series S Protein A sensor chip at 300 RU; recombinant mouse FcγRs injected at 400 to 3.125 nM, 30 µL/min, 90 s association, 120 s dissociation; 1:1 Langmuir binding model).
hu1‐23 (human), sequence (heavy, as listed by the source, chain 1 of 2): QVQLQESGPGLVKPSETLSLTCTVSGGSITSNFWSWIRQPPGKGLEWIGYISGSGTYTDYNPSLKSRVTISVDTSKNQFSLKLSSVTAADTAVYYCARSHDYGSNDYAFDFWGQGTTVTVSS
hu1‐23 (human), sequence (light, as listed by the source, chain 2 of 2): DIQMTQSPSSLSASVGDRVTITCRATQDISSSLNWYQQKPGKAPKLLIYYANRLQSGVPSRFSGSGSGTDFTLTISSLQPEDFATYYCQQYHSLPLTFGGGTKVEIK

B1 and B2 are within 1.5-fold of each other in Kd: 54.1 nM for the first, 41.8 nM for the second.

B3 and B4 are within 1.5-fold of each other in Kd: 300 nM for the first, 233 nM for the second.

The binders below were run against 73 (human) in the same assay as above.
73 (human), sequence (heavy, as listed by the source, chain 1 of 2): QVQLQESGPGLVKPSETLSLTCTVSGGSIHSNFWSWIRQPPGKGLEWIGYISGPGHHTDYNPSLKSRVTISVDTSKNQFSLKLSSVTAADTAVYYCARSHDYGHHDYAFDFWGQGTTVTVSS
73 (human), sequence (light, as listed by the source, chain 2 of 2): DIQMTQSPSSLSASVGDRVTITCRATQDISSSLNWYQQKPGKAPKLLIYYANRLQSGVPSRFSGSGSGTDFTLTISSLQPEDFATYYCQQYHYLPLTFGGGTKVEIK

B1 and B2 are within 1.5-fold of each other in Kd: 45.2 nM for the first, 42.6 nM for the second.

B3 showed a Kd of 379 nM.

The binders below were run against 73‐DY (human) in the same assay as above.

Compared with B1, B2 is 4.9-fold higher in Kd: 11.1 nM for the first, 54.3 nM for the second.

B3 and B4 are within 1.5-fold of each other in Kd: 9.72 nM for the first, 12 nM for the second.

These binders were tested against rc.73-DD (mouse) (assay: SPR; BIAcore 8K, 25 °C, HBS-EP+; antibodies with mIgG-Fc captured on a CM5 chip with immobilised anti-mouse antibodies; FcγRs injected at 400 to 3.125 nM (1:2 dilutions), 30 µL/min, 90 s association, 120 s dissociation; 1:1 Langmuir model).

Compared with B3, B4 is 4-fold higher in Kd: 2.97 nM for the first, 11.8 nM for the second.

These binders were tested against rc.hu1-23 (mouse) in the same assay as above.

First: B3
Second: B4
The Kd of the first is 14-fold lower: 196 nM for the first, 2680 nM for the second. The first binds more tightly here.
